Laboratory results reported in patent US20250320281A1.

Legend:
Experiment in all cases: cell-based or functional assay
[1] = target: HIV-1 Env of isolate MGRM-A-009 (pseudovirus) (HIV-1)
[2] = target: HIV-1 Env of isolate 92UG031 (pseudovirus) (HIV-1)
[3] = target: HIV-1 Env of isolate MGRM-A-011 (pseudovirus) (HIV-1)
[4] = target: HIV-1 Env of isolate MGRM-AE-001 (pseudovirus) (HIV-1)
[5] = target: HIV-1 Env of isolate CMU02 (pseudovirus) (HIV-1)
[6] = target: HIV-1 Env of isolate MGRM-A-008 (pseudovirus) (HIV-1)
[7] = target: HIV-1 Env of isolate MGRM-A-002 (pseudovirus) (HIV-1)
[8] = target: HIV-1 Env of isolate MGRM-AE-002 (pseudovirus) (HIV-1)
[9] = target: HIV-1 Env of isolate 92WR024 (pseudovirus) (HIV-1)
[10] = target: HIV-1 Env of isolate MGRM-A-003 (pseudovirus) (HIV-1)
[11] = target: HIV-1 Env of isolate MGRM-A-013 (pseudovirus) (HIV-1)
[12] = target: HIV-1 Env of isolate 92RW008 (pseudovirus) (HIV-1)
[13] = target: HIV-1 Env of isolate MGRM-A-007 (pseudovirus) (HIV-1)
[14] = target: HIV-1 Env of isolate MGRM-A-010 (pseudovirus) (HIV-1)
[15] = target: HIV-1 Env of isolate 94KE105 (pseudovirus) (HIV-1)
[16] = target: HIV-1 Env of isolate MGRM-A-001 (pseudovirus) (HIV-1)
[17] = target: HIV-1 Env of isolate MGRM-A-004 (pseudovirus) (HIV-1)
[18] = target: HIV-1 Env of isolate VLGCA1 (pseudovirus) (HIV-1)
[19] = target: HIV-1 Env of isolate MGRM-A-006 (pseudovirus) (HIV-1)
[20] = target: HIV-1 Env of isolate MGRM-A-012 (pseudovirus) (HIV-1)
[21] = target: HIV-1 Env of isolate 92WR026 (pseudovirus) (HIV-1)
[22] = target: HIV-1 Env of isolate 92WR020 (pseudovirus) (HIV-1)
[23] = target: HIV-1 Env of isolate 92WR009 (pseudovirus) (HIV-1)
[24] = target: HIV-1 Env of isolate 94UG103 (pseudovirus) (HIV-1)
[25] = target: HIV-1 Env of isolate 92WR021 (pseudovirus) (HIV-1)
[26] = target: HIV-1 Env of isolate 93UG077 (pseudovirus) (HIV-1)
[27] = target: HIV-1 Env of isolate 92UG037 (pseudovirus) (HIV-1)
[28] = target: HIV-1 Env of isolate MGRM-A-005 (pseudovirus) (HIV-1)
[29] = target: HIV-1 Env of isolate MGRM-AE-003 (pseudovirus) (HIV-1)
[30] = target: HIV-1 Env of isolate 93WR029 (pseudovirus) (HIV-1)
[31] = target: HIV-1 Env of isolate MGRM-A-014 (pseudovirus) (HIV-1)
[32] = target: HIV-1 Env of isolate 92TH021 (pseudovirus) (HIV-1)

Substance | IC50 (µg/mL), pseudovirus neutralization [1] [µg/mL] | IC50 (µg/mL), pseudovirus neutralization [2] [µg/mL] | IC50 (µg/mL), pseudovirus neutralization [3] [µg/mL] | IC50 (µg/mL), pseudovirus neutralization [4] [µg/mL] | IC50 (µg/mL), pseudovirus neutralization [5] [µg/mL] | IC50 (µg/mL), pseudovirus neutralization [6] [µg/mL] | IC50 (µg/mL), pseudovirus neutralization [7] [µg/mL] | IC50 (µg/mL), pseudovirus neutralization [8] [µg/mL] | IC50 (µg/mL), pseudovirus neutralization [9] [µg/mL] | IC50 (µg/mL), pseudovirus neutralization [10] [µg/mL] | IC50 (µg/mL), pseudovirus neutralization [11] [µg/mL] | IC50 (µg/mL), pseudovirus neutralization [12] [µg/mL] | IC50 (µg/mL), pseudovirus neutralization [13] [µg/mL] | IC50 (µg/mL), pseudovirus neutralization [14] [µg/mL] | IC50 (µg/mL), pseudovirus neutralization [15] [µg/mL] | IC50 (µg/mL), pseudovirus neutralization [16] [µg/mL] | IC50 (µg/mL), pseudovirus neutralization [17] [µg/mL] | IC50 (µg/mL), pseudovirus neutralization [18] [µg/mL] | IC50 (µg/mL), pseudovirus neutralization [19] [µg/mL] | IC50 (µg/mL), pseudovirus neutralization [20] [µg/mL] | also measured
PGT-122 (4877_D15) (antibody) | 0.012 | > 50 | > 50 | > 50 | > 50 | > 50 | 0.017 | > 50 | > 50 | 3.79 | 2.47 | 0.003 | > 50 | 2.51 | 0.056 | > 50 | > 50 | > 50 | > 50 | 0.257 | IC50 (µg/mL), pseudovirus neutralization [21]: 0.036 µg/mL; IC50 (µg/mL), pseudovirus neutralization [22]: 0.009 µg/mL; IC50 (µg/mL), pseudovirus neutralization [23]: 42.4 µg/mL; IC50 (µg/mL), pseudovirus neutralization [24]: 2.04 µg/mL; IC50 (µg/mL), pseudovirus neutralization [25]: 0.021 µg/mL; IC50 (µg/mL), pseudovirus neutralization [26]: 0.084 µg/mL; IC50 (µg/mL), pseudovirus neutralization [27]: 0.068 µg/mL; IC50 (µg/mL), pseudovirus neutralization [28]: > 50 µg/mL; IC50 (µg/mL), pseudovirus neutralization [29]: > 50 µg/mL; IC50 (µg/mL), pseudovirus neutralization [30]: > 50 µg/mL; IC50 (µg/mL), pseudovirus neutralization [31]: 0.007 µg/mL; IC50 (µg/mL), pseudovirus neutralization [32]: > 50 µg/mL
PGT-121 (4838_L06; 4873_E03) (antibody) | 0.006 | > 50 | > 50 | > 50 | > 50 | > 50 | 0.013 | > 50 | > 50 | 0.435 | 0.387 | 0.003 | > 50 | 2.44 | 0.029 | > 50 | > 50 | > 50 | 0.396 | 0.092 | IC50 (µg/mL), pseudovirus neutralization [21]: 0.014 µg/mL; IC50 (µg/mL), pseudovirus neutralization [22]: 0.004 µg/mL; IC50 (µg/mL), pseudovirus neutralization [23]: 1.74 µg/mL; IC50 (µg/mL), pseudovirus neutralization [24]: 2.52 µg/mL; IC50 (µg/mL), pseudovirus neutralization [25]: 0.009 µg/mL; IC50 (µg/mL), pseudovirus neutralization [26]: 0.019 µg/mL; IC50 (µg/mL), pseudovirus neutralization [27]: 0.031 µg/mL; IC50 (µg/mL), pseudovirus neutralization [28]: > 50 µg/mL; IC50 (µg/mL), pseudovirus neutralization [29]: > 50 µg/mL; IC50 (µg/mL), pseudovirus neutralization [30]: > 50 µg/mL; IC50 (µg/mL), pseudovirus neutralization [31]: 0.003 µg/mL; IC50 (µg/mL), pseudovirus neutralization [32]: > 50 µg/mL
